Reference: publication PMC4204887

Assays:
[1] = molecular target: Val122Ile transthyretin (V122I TTR) (human) (UniProt P02766); experiment: native gel or EMSA
[2] = molecular target: wild-type transthyretin (WT TTR) (human) (UniProt P02766); experiment: native gel or EMSA

t50 of formation of the 2 FT2/2 TTR heterotetramer [1] [h] | Kex (subunit exchange rate constant) [2] [h⁻¹] | t50 of formation of the 2 FT2/2 TTR heterotetramer [2] [h] | Substance
2.84 |  |  | tandem flag-tagged Val122Ile transthyretin (FT2·V122I TTR) (from UniProt P02766 21-147) (natural protein)
 | 0.28 | 12.5 | tandem flag-tagged wild-type transthyretin (FT2·WT TTR) (from UniProt P02766 21-147) (natural protein)
